Assay [1] concerns the target T1, cynoSIRPα (EGM_02252), Extracellular Domain + His-Tag (cynomolgus monkey).
T1 construct: also called CySIRPα EGM_02252; not shown: His-Tag
T1 chain: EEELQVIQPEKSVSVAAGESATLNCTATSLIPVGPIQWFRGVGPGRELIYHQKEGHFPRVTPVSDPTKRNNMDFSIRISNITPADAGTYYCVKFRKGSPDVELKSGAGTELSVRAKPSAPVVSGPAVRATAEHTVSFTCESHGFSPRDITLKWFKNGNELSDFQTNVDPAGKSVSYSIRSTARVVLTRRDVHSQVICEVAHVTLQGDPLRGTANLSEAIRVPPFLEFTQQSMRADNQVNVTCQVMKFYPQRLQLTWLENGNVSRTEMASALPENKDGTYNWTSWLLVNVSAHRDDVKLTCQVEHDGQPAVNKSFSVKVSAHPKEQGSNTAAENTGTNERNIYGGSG
The experiment in a line: SPR, antibody captured on Protein A/G, ECD-His analyte. The procedure, abridged: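 Anti-SIRPα antibodies (~1 ug/ml) were captured on a Protein A/G CM5 surface to ~240 RU in HBS-EP+ running buffer (Biacore 8K+). His-tagged ECD analyte dilutions were injected with 300 s association at 30 μl/min and 600 s dissociation.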
Background: SPR reads the build-up and loss of mass on a sensor chip optically.

Assay [2] deals with T2, Human SIRPαV2 (CAA71403.1), Extracellular Domain + His-Tag (human, UniProt P78324 31-373).
T2 construct: also called huSIRPαV2; hSIRPαV2; not shown: His-Tag
The experiment in a line: SPR, antibody captured on Protein A/G, ECD-His analyte, 1:1 fit. In a few lines: (§1)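 Biacore 8K+ at HBS-EP+, with antibodies (~1 ug/ml) captured on Protein A/G CM5 surface to ~240 RU. SIRPα ECD-His analyte dilutions injected at 30 μl/min for 300 s association, 600 s dissociation.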

The target in assay [3] is T3, Human SIRPαV1 (NP_542970.1), Extracellular Domain + His-Tag (human, UniProt P78324 31-373).
T3 construct: also called huSIRPαV1; hSIRPαV1; not shown: His-Tag
The description is as above. In a few lines: as §1

The target in assay [4] is T4, cynoSIRPα (XP_015313155), Extracellular Domain + His-Tag (cynomolgus monkey).
T4 construct: also called CySIRPα XP_015313155; not shown: His-Tag
T4 chain: T1 chain with E19D, A27V, T28S, V42A, H51N, Q52L, F227V, M245T
Described as above. The procedure, abridged:
as §1

Assay [5] concerns the target T5, cynoSIRPα (NP_001271679), Extracellular Domain + His-Tag (cynomolgus monkey).
T5 construct: also called CySIRPα NP_001271679; not shown: His-Tag
T5 chain: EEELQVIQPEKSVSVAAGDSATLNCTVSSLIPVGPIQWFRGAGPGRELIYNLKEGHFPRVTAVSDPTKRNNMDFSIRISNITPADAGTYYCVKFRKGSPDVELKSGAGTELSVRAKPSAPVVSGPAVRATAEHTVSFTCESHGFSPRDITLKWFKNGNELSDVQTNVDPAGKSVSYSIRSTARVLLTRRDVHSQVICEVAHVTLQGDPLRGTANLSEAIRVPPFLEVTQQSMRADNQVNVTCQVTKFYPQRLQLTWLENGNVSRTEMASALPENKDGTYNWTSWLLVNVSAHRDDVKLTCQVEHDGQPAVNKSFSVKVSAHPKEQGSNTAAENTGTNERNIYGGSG
The description is as above. In a few lines:
as §1

Assay [6] has as its target T6, human SIRPβL/SIRPβ1v3 extracellular domain + His-tag (NP_001129316.1) (human, UniProt Q5TFQ8 30-371).
T6 construct: also called hSIRPβ1v3; HuSIRPβ1v3
The experiment in a line: SPR, Ab captured, ECD-His analyte. Here is the method:
(§2) The binding affinity of anti-SIRPα antibodies to the various SIRPα analytes is determined by surface plasmon resonance (SPR) using a ProteOn XPR36 (Bio-Rad). The running buffer for this experiment and all dilutions (except where stated) are done in 1×HBS-EP+. […] The sensorchip is deactivated with 1M ethanolamine HCl for 420 sec at a flowrate of 10 μl/min.
(§3) The analyte is injected over the captured antibody for 300 sec at a flowrate of 30 μl/min. The dissociation is done for 600 sec. Two-fold serial dilutions of each SIRP protein (Extracellular Domain+His-Tag) are injected as analyte with the highest concentrations indicated in table 36 below.

In assay [7] the target is T7, human SIRPβ1 extracellular domain + His-tag (NP_006056.2) (human, UniProt O00241 30-371).
T7 construct: also called hSIRPβ1; HuSIRPβ1
The experiment in a line: SPR, Ab captured, ECD-His analyte. As to the method:
as §2, §3

Assay [8] concerns the target T8, human SIRPαV1 extracellular domain + His-tag (NP_542970.1) (human, UniProt P78324 31-373).
T8 construct: also called hSIRPαV1; HuSIRPαV1
The experiment in a line: SPR, Ab captured, ECD-His analyte. As to the method:
as §2, §3

Assay [9] concerns the target T9, human SIRPαV2 extracellular domain + His-tag (CAA71403.1) (human, UniProt P78324 31-373).
T9 construct: also called hSIRPαV2; HuSIRPαV2
The assay is described as follows: SPR, Ab captured, ECD-His analyte. Here is the method: as §2, §3

Assay [10] has as its target T10, human SIRPγ extracellular domain + His-tag (NP_061026.2) (human, UniProt Q9P1W8 29-360).
T10 construct: also called hSIRPγ; HuSIRPγ
The experiment in a line: SPR, Ab captured, ECD-His analyte. As to the method: as §2, §3

The target of assay [11] is T1, cynoSIRPα (EGM_02252), Extracellular …. The experiment in a line: SPR, antibody captured on Protein A/G, ECD-His analyte, steady-state fit. As to the method:
(§4) The binding kinetics of anti-SIRPα antibodies to various SIRPα analytes are determined by surface plasmon resonance (SPR) using a Biacore 8K+(Cytiva). 1×HBS-EP+(Cytiva) is used as running buffer and for all the dilutions unless stated otherwise. The Series S CM5 sensorchip is activated with a 1:1 mixture of 0.1 M NHS (N-hydroxysuccinimide) and 0.4 M EDC (1-Ethyl-3-(3-dimethylaminopropyl) carbodiimide hydrochloride) for 420 seconds at a flow rate of 10 μl/min and immobilized with Protein A/G (Thermo Scientific, 10 μg/ml in 10 mM acetate pH 4.5) for 420 seconds at a flowrate of 10 μl/min resulting in approximately 3000 RU of Protein A/G on the surface. The sensorchip is then deactivated with 1 M ethanolamine HCl pH 8.5 for 420 seconds at a flowrate of 10 μl/min.
(§5) Antibodies (approximately 1 ug/ml) are captured on the Protein A/G surface for 60 seconds at a flowrate of 10 μl/min resulting in capture levels of approximately 240 RU. Dilutions of each SIRP protein (Extracellular Domain+His-Tag, with the concentrations as indicated) are injected as analytes over the captured antibody for 300 seconds of association at a flowrate of 30 μl/min, followed by a dissociation for 600 seconds.
(§6) The above procedures are used to measure binding properties of antibodies of the present disclosure. For each analyte used, the highest concentration was as indicated in Example 3 (see Table 36).

Assay [12] has as its target T4, cynoSIRPα (XP_015313155), Extracellular …. The description is as above. As to the method:
as §4, §5, §6

Where a chain is given by its changes, count along the chain named.

These results are taken from patent US20230012273A1 (Boehringer Ingelheim, published 2023).

As usually defined, the Kd is the concentration at which binding is half-saturated. For orientation: koff means a measure of how fast the partners let go of each other. Usually kon stands for the second-order rate constant of association.

T3 sequence (P78324 other isoform, or with tags, fused parts or gaps): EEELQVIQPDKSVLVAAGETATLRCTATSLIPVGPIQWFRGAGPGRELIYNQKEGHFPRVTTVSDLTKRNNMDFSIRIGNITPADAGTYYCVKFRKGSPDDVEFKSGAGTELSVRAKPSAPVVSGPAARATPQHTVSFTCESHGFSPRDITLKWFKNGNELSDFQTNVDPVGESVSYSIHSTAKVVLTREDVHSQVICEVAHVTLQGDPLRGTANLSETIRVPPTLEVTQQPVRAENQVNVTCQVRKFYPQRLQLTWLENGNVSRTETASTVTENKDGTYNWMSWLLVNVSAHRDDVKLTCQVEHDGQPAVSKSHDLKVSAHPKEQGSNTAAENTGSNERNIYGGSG
T2 sequence (P78324 other isoform, or with tags, fused parts or gaps): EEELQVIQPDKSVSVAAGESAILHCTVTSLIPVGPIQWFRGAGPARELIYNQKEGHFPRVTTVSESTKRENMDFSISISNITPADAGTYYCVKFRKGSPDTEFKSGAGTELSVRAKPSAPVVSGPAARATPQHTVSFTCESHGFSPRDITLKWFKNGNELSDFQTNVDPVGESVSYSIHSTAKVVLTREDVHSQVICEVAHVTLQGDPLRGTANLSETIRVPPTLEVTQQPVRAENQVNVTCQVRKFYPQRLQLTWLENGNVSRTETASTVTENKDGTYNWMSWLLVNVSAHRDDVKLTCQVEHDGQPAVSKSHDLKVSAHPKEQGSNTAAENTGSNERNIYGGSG
T7 sequence (O00241 other isoform, or with tags, fused parts or gaps): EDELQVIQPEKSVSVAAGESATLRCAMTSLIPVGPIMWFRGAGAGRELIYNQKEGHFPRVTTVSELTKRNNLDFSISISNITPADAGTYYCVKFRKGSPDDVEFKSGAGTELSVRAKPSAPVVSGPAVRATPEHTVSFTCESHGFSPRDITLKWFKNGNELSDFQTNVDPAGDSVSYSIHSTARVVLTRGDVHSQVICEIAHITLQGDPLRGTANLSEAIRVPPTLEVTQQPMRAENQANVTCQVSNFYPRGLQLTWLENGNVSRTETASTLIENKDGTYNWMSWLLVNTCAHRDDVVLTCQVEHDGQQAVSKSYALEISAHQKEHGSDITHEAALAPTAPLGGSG
T6 sequence (Q5TFQ8 other isoform, or with tags, fused parts or gaps): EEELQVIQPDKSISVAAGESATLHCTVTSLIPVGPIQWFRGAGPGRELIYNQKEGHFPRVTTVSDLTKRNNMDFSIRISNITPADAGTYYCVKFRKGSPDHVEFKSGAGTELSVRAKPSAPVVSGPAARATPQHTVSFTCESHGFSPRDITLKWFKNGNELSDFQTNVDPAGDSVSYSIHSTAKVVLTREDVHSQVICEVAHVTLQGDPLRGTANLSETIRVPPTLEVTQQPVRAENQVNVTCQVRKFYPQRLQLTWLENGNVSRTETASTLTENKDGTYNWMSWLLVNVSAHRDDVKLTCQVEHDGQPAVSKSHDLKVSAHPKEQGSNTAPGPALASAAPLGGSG
T10 sequence (Q9P1W8 29-360): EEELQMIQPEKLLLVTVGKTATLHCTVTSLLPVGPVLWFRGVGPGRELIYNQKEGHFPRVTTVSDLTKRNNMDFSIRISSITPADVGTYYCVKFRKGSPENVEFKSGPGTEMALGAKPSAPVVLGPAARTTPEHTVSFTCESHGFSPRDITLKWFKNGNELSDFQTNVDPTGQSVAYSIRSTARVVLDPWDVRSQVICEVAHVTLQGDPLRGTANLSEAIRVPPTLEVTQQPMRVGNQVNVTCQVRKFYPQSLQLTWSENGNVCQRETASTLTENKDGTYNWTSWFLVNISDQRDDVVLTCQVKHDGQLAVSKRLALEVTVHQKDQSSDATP

B1: Antibody E18 (antibody, human IgG1, kappa, L234A L235A, V domains shown)
VH: QVQLQESGPGLVRPSETLSLTCTVSGGSIRNYYWSWIRQPPGKGLEWIGFIYYTGRTFYNPSLKSRVTISLDMSKNQFSLKMTSVTAADTAVYYCARVRAYSGIGLDGTDVWGQGTTVTVSS
VL: DIVMTQSPLSLPVTPGEPASISCKSSQSLLYSNGYAYLDWYLQRPGQSPQLLIYLGSNRASGVPDRFSGSGSGTDFTLKISRVEAEDVGVYYCMQALQTPLTFGGGTKVEIKR
B1: in assay [1], the binding result was “no binding (tested: 1000 nM)”. The Kd worked out at 0.9 nM in assay [2], 2.46 nM in assay [3], 50 nM in assay [4] and 52.5 nM in [5]. Moreover, the koff is 0.000443 s⁻¹ in [2], 0.00101 s⁻¹ in [3], 0.0113 s⁻¹ in [4] and 0.0118 s⁻¹ in [5]. Moreover, the kon came to 493000 M⁻¹ s⁻¹ in [2], 410000 M⁻¹ s⁻¹ in [3], 226000 M⁻¹ s⁻¹ in [4] and 224000 M⁻¹ s⁻¹ in assay [5].

B2: Antibody E20 (antibody, human IgG1, kappa, L234A L235A, V domains shown)
VH: B1 VH with K75I
VL: B1 VL with G34A, A36N
With B2, the binding result in [1] is given as “no binding (tested: 1000 nM)”. In addition, the Kd in assay [2] worked out at 1.11 nM; in assay [3] it was 3.42 nM; in assay [4], 104 nM; in assay [5] it was 111 nM. Also, the koff worked out at 0.000627 s⁻¹ in assay [2], 0.00164 s⁻¹ in assay [3], 0.0261 s⁻¹ in assay [4] and 0.0278 s⁻¹ in [5]. Besides, the kon in assay [2] was 563000 M⁻¹ s⁻¹; in assay [3], 480000 M⁻¹ s⁻¹; in [4] it was 251000 M⁻¹ s⁻¹; in assay [5], 251000 M⁻¹ s⁻¹.

B3: Antibody E19 (antibody, human IgG1, kappa, L234A L235A, V domains shown)
VH: B1 VH
VL: B1 VL with L55Q, Y91F
Consider B3, for which, in assay [1], the binding result is “no binding (tested: 1000 nM)”. The Kd worked out at 0.97 nM in assay [2], 2.52 nM in assay [3], 44.7 nM in assay [4] and 46.6 nM in assay [5]. In addition, the koff in assay [2] is 0.000399 s⁻¹; in assay [3], 0.000843 s⁻¹; in [4], 0.00687 s⁻¹; in assay [5] it was 0.00725 s⁻¹. Moreover, the kon in assay [2] came out at 411000 M⁻¹ s⁻¹; in assay [3] it was 334000 M⁻¹ s⁻¹; in [4] it was 154000 M⁻¹ s⁻¹; in [5], 156000 M⁻¹ s⁻¹.

B4: Antibody E21 (antibody, human IgG1, kappa, L234A L235A, V domains shown)
VH: B1 VH
VL: B1 VL with G34A, A36N
In the case of B4, the binding result in assay [1] was “no binding (tested: 1000 nM)”. The Kd in assay [2] was found to be 1.39 nM; in assay [3] it was 4.46 nM; in assay [4], 108 nM; in assay [5], 107 nM. For the same molecule, the koff in assay [2] came out at 0.000761 s⁻¹; in assay [3], 0.00212 s⁻¹; in assay [4], 0.0245 s⁻¹; in assay [5] it was 0.0242 s⁻¹. For the same molecule, the kon stood at 549000 M⁻¹ s⁻¹ in assay [2], 476000 M⁻¹ s⁻¹ in [3], 228000 M⁻¹ s⁻¹ in assay [4] and 225000 M⁻¹ s⁻¹ in assay [5].

B5: Antibody E5 (antibody, human IgG1, kappa, L234A L235A, V domains shown)
VH: B1 VH with T54N, M73K
VL: B1 VL with L55Q, Y91F
Turning to B5, the Kd in assay [6] is 2.72 nM; in [7], 1380 nM; in assay [8], 1.02 nM; in assay [9] it was 0.873 nM. For the same molecule, the binding result in assay [10] is “no binding (tested: 1000 nM)”.

B6: Antibody E2 (antibody, human IgG1, kappa, L234A L235A, V domains shown)
VH: B1 VH with T54N, K75I
VL: B1 VL
Turning to B6, the Kd in assay [6] is 1.93 nM; in assay [8], 0.912 nM; in [9], 0.687 nM. For the same molecule, the binding result in [7] and in [10] was “no binding (tested: 1000 nM)” each time.

B7: Antibody A (antibody, human IgG1, kappa, L234A L235A)
heavy: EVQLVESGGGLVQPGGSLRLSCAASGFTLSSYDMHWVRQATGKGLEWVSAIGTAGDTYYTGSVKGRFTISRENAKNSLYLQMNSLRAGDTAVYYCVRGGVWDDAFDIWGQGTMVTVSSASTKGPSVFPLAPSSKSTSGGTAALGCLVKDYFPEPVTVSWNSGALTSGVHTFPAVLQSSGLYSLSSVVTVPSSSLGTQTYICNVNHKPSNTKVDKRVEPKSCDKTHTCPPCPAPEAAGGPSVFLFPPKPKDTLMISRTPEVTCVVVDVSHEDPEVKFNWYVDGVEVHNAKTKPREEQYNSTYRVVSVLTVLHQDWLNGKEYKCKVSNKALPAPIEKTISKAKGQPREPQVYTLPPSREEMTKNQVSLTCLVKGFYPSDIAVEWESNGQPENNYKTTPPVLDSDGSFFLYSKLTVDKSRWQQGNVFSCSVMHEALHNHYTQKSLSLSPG
light: DIQMTQSPSSLSASVGDRVTITCRASQDINNYLAWFQQKPGKAPKSLIYTASSLHSGVPSKFSGSGSGTDFTLTISSLQPEDFATYYCQQYVSYPYTFGQGTKLEIKRTVAAPSVFIFPPSDEQLKSGTASVVCLLNNFYPREAKVQWKVDNALQSGNSQESVTEQDSKDSTYSLSSTLTLSKADYEKHKVYACEVTHQGLSSPVTKSFNRGEC
On to B7, for which the Kd stood at 258 nM in assay [11], 165 nM in assay [12] and 158 nM in assay [5]. Moreover, in assay [5], the koff worked out at 0.138 s⁻¹. For the same molecule, the kon in assay [5] stood at 873000 M⁻¹ s⁻¹.
